Assay results: the supplement of paper PMC10567573

B1: ATE1 (parent)
chain: YGSFHQQYWLDGKIIAVGVIDILP
B2: OAS1 (parent)
chain: LTVYAWERGSMKTHFNTAQGFRTV

Variants of: B1
Assay: protein stability index of a GFP-peptide fusion (GPS, HEK-293T) (PSI 1-6); higher = more stable
Settings: c terminus: a fixed tail appended
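Also: lentivirally expressed fusions sorted by FACS into six bins by GFP to DsRed ratio, PSI derived from sequencing read proportions per bin multiplied by bin number.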

Variant	protein stability index
YGSFQQQYWLDGKIIAVGVIDILP [H5Q]	2.37
YGSFMQQYWLDGKIIAVGVIDILP [H5M]	1.77
YGSFFQQYWLDGKIIAVGVIDILP [H5F]	2.61
YGSFIQQYWLDGKIIAVGVIDILP [H5I]	1.49
YGSFRQQYWLDGKIIAVGVIDILP [H5R]	2.13
YGSFYQQYWLDGKIIAVGVIDILP [H5Y]	3.26
YGSFDQQYWLDGKIIAVGVIDILP [H5D]	4.47
YGSFAQQYWLDGKIIAVGVIDILP [H5A]	2.77
YGSFPQQYWLDGKIIAVGVIDILP [H5P]	2.32
YMSFHQQYWLDGKIIAVGVIDILP [G2M]	2.57
YDSFHQQYWLDGKIIAVGVIDILP [G2D]	2.58
YTSFHQQYWLDGKIIAVGVIDILP [G2T]	4.66
YKSFHQQYWLDGKIIAVGVIDILP [G2K]	2.49
YSSFHQQYWLDGKIIAVGVIDILP [G2S]	1.91
YLSFHQQYWLDGKIIAVGVIDILP [G2L]	1.66
YRSFHQQYWLDGKIIAVGVIDILP [G2R]	3.47
YPSFHQQYWLDGKIIAVGVIDILP [G2P]	3.53
YHSFHQQYWLDGKIIAVGVIDILP [G2H]	2.47
YISFHQQYWLDGKIIAVGVIDILP [G2I]	3.05
YESFHQQYWLDGKIIAVGVIDILP [G2E]	2.72
YQSFHQQYWLDGKIIAVGVIDILP [G2Q]	2.66
YYSFHQQYWLDGKIIAVGVIDILP [G2Y]	3.14

Variant	protein stability index
YCSFHQQYWLDGKIIAVGVIDILP [G2C]	2.8
YNSFHQQYWLDGKIIAVGVIDILP [G2N]	4.75
YGSFHRQYWLDGKIIAVGVIDILP [Q6R]	3.54
YGSFHIQYWLDGKIIAVGVIDILP [Q6I]	3.08
YGSFHNQYWLDGKIIAVGVIDILP [Q6N]	3.97
YGSFHAQYWLDGKIIAVGVIDILP [Q6A]	3.19
YGSFHFQYWLDGKIIAVGVIDILP [Q6F]	2.94
YGSFHHQYWLDGKIIAVGVIDILP [Q6H]	2.7
YGSFHDQYWLDGKIIAVGVIDILP [Q6D]	2.55
YGSFHKQYWLDGKIIAVGVIDILP [Q6K]	3.09
YGSFHGQYWLDGKIIAVGVIDILP [Q6G]	2.41
YGSFHSQYWLDGKIIAVGVIDILP [Q6S]	2.86
YGSMHQQYWLDGKIIAVGVIDILP [F4M]	2.76
YGSQHQQYWLDGKIIAVGVIDILP [F4Q]	2.72
YGSNHQQYWLDGKIIAVGVIDILP [F4N]	3.28
YGSWHQQYWLDGKIIAVGVIDILP [F4W]	2.2
YGSPHQQYWLDGKIIAVGVIDILP [F4P]	1.93
YGSVHQQYWLDGKIIAVGVIDILP [F4V]	1.4
YGSHHQQYWLDGKIIAVGVIDILP [F4H]	2.83
YGSEHQQYWLDGKIIAVGVIDILP [F4E]	3.75
YGSDHQQYWLDGKIIAVGVIDILP [F4D]	2.95
YGSYHQQYWLDGKIIAVGVIDILP [F4Y]	4.54

Variant	protein stability index
YGSIHQQYWLDGKIIAVGVIDILP [F4I]	2.92
YGSSHQQYWLDGKIIAVGVIDILP [F4S]	3.69
MGSFHQQYWLDGKIIAVGVIDILP [Y1M]	1.87
EGSFHQQYWLDGKIIAVGVIDILP [Y1E]	1.92
NGSFHQQYWLDGKIIAVGVIDILP [Y1N]	1.77
HGSFHQQYWLDGKIIAVGVIDILP [Y1H]	2.79
FGSFHQQYWLDGKIIAVGVIDILP [Y1F]	3.22
CGSFHQQYWLDGKIIAVGVIDILP [Y1C]	3.63
SGSFHQQYWLDGKIIAVGVIDILP [Y1S]	4.07
LGSFHQQYWLDGKIIAVGVIDILP [Y1L]	1.73
KGSFHQQYWLDGKIIAVGVIDILP [Y1K]	3.54
YGDFHQQYWLDGKIIAVGVIDILP [S3D]	4.93
YGPFHQQYWLDGKIIAVGVIDILP [S3P]	2.19
YGWFHQQYWLDGKIIAVGVIDILP [S3W]	2.82
YGRFHQQYWLDGKIIAVGVIDILP [S3R]	2.02
YGTFHQQYWLDGKIIAVGVIDILP [S3T]	2.22
YGKFHQQYWLDGKIIAVGVIDILP [S3K]	2.55
YGVFHQQYWLDGKIIAVGVIDILP [S3V]	3.33
YGHFHQQYWLDGKIIAVGVIDILP [S3H]	2.96
YGYFHQQYWLDGKIIAVGVIDILP [S3Y]	2.74
YGIFHQQYWLDGKIIAVGVIDILP [S3I]	3.48
YGEFHQQYWLDGKIIAVGVIDILP [S3E]	1.34

Variants of: B2
Assay: as above
Settings: c terminus: a fixed tail appended

Variant	protein stability index
LTVYAWERGSMKTHFNTAQGFRTY [V24Y]	2.51
LTVYAWERGSMKTHFNTAQGFRTD [V24D]	1.63
LTVYAWERGSMKTHFNTAQGFRTC [V24C]	2.83
LTVYAWERGSMKTHFNTAQGFRTQ [V24Q]	2.06
LTVYAWERGSMKTHFNTAQGFRTM [V24M]	1.96
LTVYAWERGSMKTHFNTAQGFRTT [V24T]	1.8
LTVYAWERGSMKTHFNTAQGFRTG [V24G]	1.73
LTVYAWERGSMKTHFNTAQGFRTP [V24P]	2.64
LTVYAWERGSMKTHFNTAQGFRTA [V24A]	2.04
LTVYAWERGSMKTHFNTAQGFRTK [V24K]	1.71
LTVYAWERGSMKTHFNTAQGFRTH [V24H]	1.61
LTVYAWERGSMKTHFNTAQGFRTL [V24L]	1.68
LTVYAWERGSMKTHFNTAQGFRTE [V24E]	2.51
LTVYAWERGSMKTHFNTAQGFRTI [V24I]	3.42
LTVYAWERGSMKTHFNTAQGFRTR [V24R]	1.69
LTVYAWERGSMKTHFNTAQGFRTF [V24F]	2.35
LTVYAWERGSMKTHFNTAQGFRTS [V24S]	3.01
LTVYAWERGSMKTHFNTAQGFRTN [V24N]	2.84
LTVYAWERGSMKTHFNTAQPFRTV [G20P]	2.25
LTVYAWERGSMKTHFNTAQEFRTV [G20E]	3.23
LTVYAWERGSMKTHFNTAQIFRTV [G20I]	3
LTVYAWERGSMKTHFNTAQLFRTV [G20L]	3.19
LTVYAWERGSMKTHFNTAQQFRTV [G20Q]	2.14
LTVYAWERGSMKTHFNTAQDFRTV [G20D]	2.18
LTVYAWERGSMKTHFNTAQHFRTV [G20H]	2.56

Variant	protein stability index
LTVYAWERGSMKTHFNTAQFFRTV [G20F]	2.39
LTVYAWERGSMKTHFNTAQNFRTV [G20N]	2.19
LTVYAWERGSMKTHFNTAQRFRTV [G20R]	3.81
LTVYAWERGSMKTHFNTAQWFRTV [G20W]	1.9
LTVYAWERGSMKTHFNTAQSFRTV [G20S]	3.02
LTVYAWERGSMKTHFNTAQKFRTV [G20K]	1.61
LTVYAWERGSMKTHFNTAQTFRTV [G20T]	2.89
LTVYAWERGSMKTHFNTAQYFRTV [G20Y]	3.45
LTVYAWERGSMKTHFNTAQAFRTV [G20A]	2.49
LTVYAWERGSMKTHFNTAQCFRTV [G20C]	2.06
LTVYAWERGSMKTHFNTAQVFRTV [G20V]	2.89
LTVYAWERGSMKTHFNTYQGFRTV [A18Y]	4.24
LTVYAWERGSMKTHFNTDQGFRTV [A18D]	4.02
LTVYAWERGSMKTHFNTFQGFRTV [A18F]	2.56
LTVYAWERGSMKTHFNTNQGFRTV [A18N]	2.63
LTVYAWERGSMKTHFNTHQGFRTV [A18H]	3.09
LTVYAWERGSMKTHFNTTQGFRTV [A18T]	2.39
LTVYAWERGSMKTHFNTEQGFRTV [A18E]	1.54
LTVYAWERGSMKTHFNTIQGFRTV [A18I]	4.47
LTVYAWERGSMKTHFNTQQGFRTV [A18Q]	2.79
LTVYAWERGSMKTHFNTLQGFRTV [A18L]	4.32
LTVYAWERGSMKTHFNTKQGFRTV [A18K]	2.67
LTVYAWERGSMKTHFNTSQGFRTV [A18S]	1.2
LTVYAWERGSMKTHFNTVQGFRTV [A18V]	3.42
LTVYAWERGSMKTHFNTWQGFRTV [A18W]	2.73

Variant	protein stability index
LTVYAWERGSMKTHFNTMQGFRTV [A18M]	2.79
LTVYAWERGSMKTHFNTRQGFRTV [A18R]	2.84
LTVYAWERGSMKTHFNTGQGFRTV [A18G]	2.64
LTVYAWERGSMKTHFNTAQGFRQV [T23Q]	1.9
LTVYAWERGSMKTHFNTAQGFRKV [T23K]	2.39
LTVYAWERGSMKTHFNTAQGFRGV [T23G]	2.76
LTVYAWERGSMKTHFNTAQGFRAV [T23A]	1.8
LTVYAWERGSMKTHFNTAQGFRNV [T23N]	3.21
LTVYAWERGSMKTHFNTAQGFRLV [T23L]	2.25
LTVYAWERGSMKTHFNTAQGFRMV [T23M]	3.15
LTVYAWERGSMKTHFNTAQGFRRV [T23R]	1.4
LTVYAWERGSMKTHFNTAQGFRDV [T23D]	3.86
LTVYAWERGSMKTHFNTAQGFRHV [T23H]	3.17
LTVYAWERGSMKTHFNTAQGFRIV [T23I]	2.69
LTVYAWERGSMKTHFNTAQGFRPV [T23P]	2.61
LTVYAWERGSMKTHFNTAQGFRSV [T23S]	2.78
LTVYAWERGSMKTHFNTAQGFRFV [T23F]	2.29
LTVYAWERGSMKTHFNTAQGFRYV [T23Y]	1.32
LTVYAWERGSMKTHFNTAMGFRTV [Q19M]	3.27
LTVYAWERGSMKTHFNTATGFRTV [Q19T]	2.88
LTVYAWERGSMKTHFNTAEGFRTV [Q19E]	2.52
LTVYAWERGSMKTHFNTARGFRTV [Q19R]	2.22
LTVYAWERGSMKTHFNTAIGFRTV [Q19I]	3.54
LTVYAWERGSMKTHFNTAVGFRTV [Q19V]	3.84
LTVYAWERGSMKTHFNTAAGFRTV [Q19A]	2.23

Variant	protein stability index
LTVYAWERGSMKTHFNTALGFRTV [Q19L]	3.4
LTVYAWERGSMKTHFNTAPGFRTV [Q19P]	3.02
LTVYAWERGSMKTHFNTACGFRTV [Q19C]	3.17
LTVYAWERGSMKTHFNTAKGFRTV [Q19K]	2.43
LTVYAWERGSMKTHFNTANGFRTV [Q19N]	2.92
LTVYAWERGSMKTHFNTAYGFRTV [Q19Y]	3.25
LTVYAWERGSMKTHFNTAGGFRTV [Q19G]	2.64
LTVYAWERGSMKTHFNTAHGFRTV [Q19H]	2.65
LTVYAWERGSMKTHFNTAWGFRTV [Q19W]	1.62
LTVYAWERGSMKTHFNTASGFRTV [Q19S]	2.63
LTVYAWERGSMKTHFNTADGFRTV [Q19D]	4.39
LTVYAWERGSMKTHFNTAFGFRTV [Q19F]	3.35
LTVYAWERGSMKTHFNTAQGFETV [R22E]	2.82
LTVYAWERGSMKTHFNTAQGFMTV [R22M]	2.53
LTVYAWERGSMKTHFNTAQGFKTV [R22K]	1.71
LTVYAWERGSMKTHFNTAQGFITV [R22I]	1.73
LTVYAWERGSMKTHFNTAQGFHTV [R22H]	3.33
LTVYAWERGSMKTHFNTAQGFWTV [R22W]	1.93
LTVYAWERGSMKTHFNTAQGFYTV [R22Y]	3.17
LTVYAWERGSMKTHFNTAQGFDTV [R22D]	2.38
LTVYAWERGSMKTHFNTAQGFVTV [R22V]	2.33
LTVYAWERGSMKTHFNTAQGFLTV [R22L]	3.28
LTVYAWERGSMKTHFNTAQGFTTV [R22T]	2.44
LTVYAWERGSMKTHFNTAQGFGTV [R22G]	1.45
LTVYAWERGSMKTHFNTAQGFFTV [R22F]	1.87

Variant	protein stability index
LTVYAWERGSMKTHFNTAQGFPTV [R22P]	3.8
LTVYAWERGSMKTHFNTAQGFATV [R22A]	3.1
LTVYAWERGSMKTHFNTAQGFNTV [R22N]	2.38
LTVYAWERGSMKTHFNTAQGIRTV [F21I]	2.09
LTVYAWERGSMKTHFNTAQGMRTV [F21M]	1.9
LTVYAWERGSMKTHFNTAQGYRTV [F21Y]	2.9
LTVYAWERGSMKTHFNTAQGSRTV [F21S]	2.42
LTVYAWERGSMKTHFNTAQGVRTV [F21V]	1.82
LTVYAWERGSMKTHFNTAQGHRTV [F21H]	1.74
LTVYAWERGSMKTHFNTAQGGRTV [F21G]	1.4
LTVYAWERGSMKTHFNTAQGLRTV [F21L]	2.67
LTVYAWERGSMKTHFNTAQGNRTV [F21N]	2.87
LTVYAWERGSMKTHFNTAQGPRTV [F21P]	2.33
LTVYAWERGSMKTHFNTAQGTRTV [F21T]	1.96
LTVYAWERGSMKTHFNTAQGERTV [F21E]	2.1
LTVYAWERGSMKTHFNTAQGRRTV [F21R]	1.82
LTVYAWERGSMKTHFNTAQGKRTV [F21K]	2.27
LTVYAWERGSMKTHFNTAQGDRTV [F21D]	2.09
LTVYAWERGSMKTHFNTAQGARTV [F21A]	1.9
LTVYAWERGSMKTHFNTAQGCRTV [F21C]	2.35
LTVYAWERGSMKTHFNTAQGWRTV [F21W]	2.21
LTVYAWERGSMKTHFNTAQGQRTV [F21Q]	1.65
